Source: the RNAGym collection of RNA variant scans (doi:10.1021/acssynbio.7b00057)

B1: Pistol ribozyme (parent)
chain: GGGUCGUUGUUCCAUAAUCGCGUGGAUAUGGCACGCAAGUUUCUACCGGGCACCGUAAAUGUCCGACUGGAGCCGUUCGGGCGGCUAUAAACAGACCUCAGGCCCGAAGCGUGGCGGCACCUGCCGCCGGUGGUAAAAAAGAUCGGAAGAGCACACGUCU

Variants of: B1
Assay: aptazyme ON/OFF ratio, guanine; higher = stronger switching; co-transcriptional cleavage with and without guanine

Variant | aptazyme ON/OFF ratio
U8C G9U U11A C12G C13U | 1.22
U8C G9U U11A C12G C13G | 1.12
U8C G9U U11A C12G C13A | 1.13
U8C G9U U10C U11C C12G C13A | 1.06
U8C G9U U10C U11C C12G C13U | 1.07
U8C G9U U10C U11C C12G C13G | 1.15
U8C G9U U10C C12U C13A | 1.06
U8C G9U U10C C12U C13U | 1.16
U8C G9U U10C C12U C13G | 1.07
U8C G9U U10C C12G C13G | 1.19
U8C G9U U10C C12G C13U | 1.24
U8C G9U U10C C12G C13A | 1.12
U8C U10A C12A | 1.29
U8C U10A C12U | 1.1
U8C U10A C12G | 1.21
U8C G9U U10A C12A C13U | 1.13
U8C G9U U10A C12A C13A | 1.17
U8C G9U U10A C12A C13G | 1.19
U8C U10C C12G C13G | 1.29
U8C U10C C12G C13A | 1.37
U8C U10C C12G C13U | 1.33

Variant | aptazyme ON/OFF ratio
U8C G9U U10A U11G C12U | 1.43
U8C G9U U10A U11G C12G | 1.23
U8C G9U U10A U11G C12A | 1.07
U8C G9U U10C C12U | 1.05
U8C G9U U10C C12A | 1.19
U8C G9U U10C C12G | 1.26
U8C G9U C13G | 1.03
U8C G9U C13A | 1.08
U8C G9U C13U | 1.27
U8C G9U U10A U11A C12U C13U | 1.5
U8C G9U U10A U11A C12U C13G | 1.2
U8C G9U U10A U11A C12U C13A | 1.14
U8C G9U U11A C13U | 1.33
U8C G9U U11A C13G | 1.03
U8C G9U U11A C13A | 1.27
U8C G9U U10A U11A C13A | 1.15
U8C G9U U10A U11A C13U | 1.22
U8C G9U U10A U11A C13G | 1.07
U8C G9U U10C U11C C13A | 1.03
U8C G9U U10C U11C C13G | 1.02
U8C G9U U10C U11C C13U | 1.04

Variant | aptazyme ON/OFF ratio
U8C G9U U11C C12G C13A | 1.13
U8C G9U U11C C12G C13U | 1.15
U8C G9U U11C C12G C13G | 1.03
U8C U10A U11C | 1.02
U8C U10A U11G | 1.29
U8C U10A U11A | 1.18
U8C U10C | 2.68
U8C U10A | 1.1
U8C U10A C13A | 1.07
U8C U10A C13G | 1.05
U8C U10A C13U | 1.05
U8C G9U U10C U11G C12G C13A | 1.11
U8C G9U U10C U11G C12G C13G | 1.15
U8C G9U U10C U11G C12G C13U | 1.07
U8C G9U U10G U11C C12G C13A | 1.22
U8C G9U U10G U11C C12G C13U | 1.2
U8C G9U U10G U11C C12G C13G | 1.26
U8C G9U U10G U11A C12U C13U | 1.31
U8C G9U U10G U11A C12U C13G | 1.16
U8C G9U U10G U11A C12U C13A | 1.24
U8C G9U U10C U11A C12U C13A | 1.13

Variant | aptazyme ON/OFF ratio
U8C G9U U10C U11A C12U C13U | 1.2
U8C G9U U10C U11A C12U C13G | 1.09
U8C G9U U11G C12G C13A | 1.19
U8C G9U U11G C12G C13G | 1.1
U8C G9U U11G C12G C13U | 1.09
U8C G9U U10G C12G | 1.6
U8C G9U U10G C12U | 1.35
U8C G9U U10G C12A | 1.66
U8C G9U U10A U11C | 1.06
U8C G9U U10A U11G | 1.74
U8C G9U U10A U11A | 2.18
U8C G9U U10A U11G C12A C13G | 1.13
U8C G9U U10A U11G C12A C13A | 1.14
U8C G9U U10A U11G C12A C13U | 1.26
U8C U10A C12G C13G | 1.14
U8C U10A C12G C13U | 1.26
U8C U10A C12G C13A | 1.17
U8C G9U C12U C13U | 0.959
U8C G9U C12U C13A | 1.25
U8C G9U C12U C13G | 1.04
